Key:
[1] = target: human MMP-2 (Biomol #SE-237) (human) (UniProt P08253); assay: Ki,app, enzyme inhibition assay (fluorogenic peptide substrate)
[2] = target: Human MMP-9 catalytic domain (BIOMOL, SE-244) (human) (UniProt P14780); assay: cell-based or functional assay
Sequence of Human MMP-9 catalytic domain (BIOMOL, SE-244) (human) (P14780 107-457 limits assumed): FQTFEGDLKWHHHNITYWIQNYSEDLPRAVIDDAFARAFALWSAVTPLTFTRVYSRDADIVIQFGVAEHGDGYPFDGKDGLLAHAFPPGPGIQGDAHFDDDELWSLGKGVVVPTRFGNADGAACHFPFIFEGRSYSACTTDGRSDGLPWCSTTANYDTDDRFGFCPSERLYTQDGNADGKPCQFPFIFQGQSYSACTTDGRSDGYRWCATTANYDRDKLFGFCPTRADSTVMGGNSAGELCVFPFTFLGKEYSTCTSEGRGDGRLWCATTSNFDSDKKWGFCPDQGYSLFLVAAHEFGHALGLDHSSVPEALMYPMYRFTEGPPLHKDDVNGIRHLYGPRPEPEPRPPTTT

Sequence of human MMP-2 (Biomol #SE-237) (human) (P08253 110-452 limits assumed): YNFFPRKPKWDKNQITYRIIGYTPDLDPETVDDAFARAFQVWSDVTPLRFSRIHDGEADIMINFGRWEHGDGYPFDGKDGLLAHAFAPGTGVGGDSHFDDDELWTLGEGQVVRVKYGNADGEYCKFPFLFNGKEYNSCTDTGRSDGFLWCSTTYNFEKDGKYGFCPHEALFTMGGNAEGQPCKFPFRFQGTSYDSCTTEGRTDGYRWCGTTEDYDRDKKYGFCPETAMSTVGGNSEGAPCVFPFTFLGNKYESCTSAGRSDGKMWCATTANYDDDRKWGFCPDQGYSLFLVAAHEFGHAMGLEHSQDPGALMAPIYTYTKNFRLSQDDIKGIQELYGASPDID

Ki [1] | IC50 (enzyme inhibition) [2] | Substance
6 nM |  | Anti-hMMP-2 R&D Systems pAb # AF902 (antibody)
 | > 500 nM | Anti-hMMP-9 R&D Systems pAb # AB911 (antibody)

Reference: patent US20110135573A1, “METALLOPROTEINASE 9 AND METALLOPROTEINASE 2 BINDING PROTEINS” (DYAX CORP., priority 2009, published 2011)
